Patent US7067277B1, “Chimeric G proteins and uses thereof” (H. Lundbeck A/S, priority 1999, dated 2006)

Tests used:
h D5 = h D5 (Homo sapiens, UniProt P21918); test: Calcium mobilization (FLIPR, Fluo-3) in transfected COS-7 cells; type: cell-based; conditions: h D5 + chimera in COS-7; agonist DA, max 100 μM
Protocol: (§1) COS-7 cells were cultured in 225 cm^2 flasks in Dulbecco's Modified Eagle Medium (DMEM) with supplements (10% bovine calf serum, 4 mM glutamine, 100 units/ml penicillin and 100 μg/ml streptomycin) at 37° C., 5% CO2. Stock plates of COS-7 cells were trypsinized and split 1:6 every 3–4 days.
(§2) GPCR and chimeric G protein cDNAs were transiently transfected into COS-7 cells in 150 cm^2 flasks by the DEAE-dextran method (Cullen, 1987), using a total of 20 μg of DNA/˜7×10^6 cells. For evaluating the function of a single chimeric G protein, the standard cDNA transfection ratio was 1:1 (10 μg GPCR cDNA and 10 μg chimeric G protein cDNA). For evaluating the function of a mixture of chimeric G proteins, the standard cDNA transfection ratio was 8:1:1 (16 μg GPCR cDNA, 2 μg Gαq/z cDNA, 2 μg Gαq/s cDNA).
(§3) Twenty four hours after transient transfection, COS-7 cells were seeded into 96-well black wall microtiter plates coated with poly-D-lysine for assay the following day. Just prior to assay, culture medium was aspirated and cells were dye-loaded with 4 μM Fluo-3/0.01% pluronic acid in assay buffer composed of Hank's Balanced Salt Solution (138 mM NaCl, 5 mM KCl, 1.3 mM CaCl2, 0.5 mM MgCl2, 0.4 mM MgSO4, 0.3 mM KH2PO4, 0.3 mM Na2HPO4, 5.6 mM glucose) plus 20 mM HEPES (pH 7.4), 0.1% BSA and 2.5 mM probenicid (100 μl/well) for 1 hour in 5% CO2 at 37° C. After excess dye was discarded, cells were washed in assay buffer and layered with a final volume equal to 100 μl/well. Basal fluorescence was monitored in a fluorometric imaging plate reader (FLIPR™, Molecular Devices) with an excitation wavelength of 488 nm and an emission range of 500 to 560 nm. Laser excitation energy was adjusted so that basal fluorescence readings were approximately 10,000 relative fluorescent units. Cells were stimulated with agonists diluted in assay buffer (50 μl), and relative fluorescent units were measured at defined intervals (exposure=0.4 sec) over a 3 min period at room temperature. Maximum change in fluorescence was calculated for each well. Concentration-response curves derived from the maximum change in fluorescence were analyzed by nonlinear regression (Hill equation).

h GLP-1 = h GLP-1 (Homo sapiens, UniProt P43220); test: as above; type: cell-based; conditions: h GLP-1 + chimera in COS-7; agonist GLP-1, max 10 μM
Protocol: as §1, §2, §3

h β2 adr = h β2 adr (Homo sapiens, UniProt P07550); test: as above; type: cell-based; conditions: h β2 adr + chimera in COS-7; agonist NE, max 100 μM
Protocol: as §1, §2, §3

h 5HT7 = h 5HT7 (Homo sapiens, UniProt P34969); test: as above; type: cell-based; conditions: h 5HT7 + chimera in COS-7; agonist 5HT, max 100 μM
Protocol: as §1, §2, §3

h 5HT4 = h 5HT4 (Homo sapiens, UniProt Q13639); test: as above; type: cell-based; conditions: h 5HT4 + chimera in COS-7; agonist 5HT, max 100 μM
Protocol: as §1, §2, §3

h 5HT6 = h 5HT6 (Homo sapiens, UniProt P50406); test: as above; type: cell-based; conditions: h 5HT6 + chimera in COS-7; agonist 5HT, max 100 μM
Protocol: as §1, §2, §3

h D1 = biological target: T1, h D1 (Homo sapiens, UniProt P21728); test: as above; type: cell-based; conditions: h D1 + chimera in COS-7; agonist DA, max 100 μM
T1 construct: expressed in transfected cells; host or cells: COS-7
Protocol: as §1
For evaluating the function of a single chimeric G protein, the standard cDNA transfection ratio was 1:1 (10 μg GPCR cDNA and 10 μg chimeric G protein cDNA). For evaluating the function of a mixture of chimeric G proteins, the standard cDNA transfection ratio was 8:1:1 (16 μg GPCR cDNA, 2 μg Gαq/z cDNA, 2 μg Gαq/s cDNA).
as §3, with “Just prior to assay, culture medium was aspirated and cells were dye-loaded with 4 μM Fluo-3/0.01% pluronic acid in assay buffer composed of Hank's Balanced Salt Solution (138 mM NaCl, 5 mM KCl, 1.3 mM CaCl2, 0.5 mM MgCl2, 0.4 mM MgSO4, 0.3 mM KH2PO4, 0.3 mM Na2HPO4, 5.6 mM glucose) plus 20 mM HEPES (pH 7.4), 0.1% BSA and 2.5 mM probenicid (100 μl/well) for 1 hour in 5% CO2 at 37° C.” left out

[1] = test system: panel of 7 Gαs-coupling receptors; test: Detection rate in COS-7 calcium mobilization over Gαs-coupling GPCR; type: cell-based, human; conditions: COS-7, stimulated with appropriate agonists
Protocol: as §1
as §2, with “For evaluating the function of a mixture of chimeric G proteins, the standard cDNA transfection ratio was 8:1:1 (16 μg GPCR cDNA, 2 μg Gαq/z cDNA, 2 μg Gαq/s cDNA).” left out
Twenty four hours after transient transfection, COS-7 cells were seeded into 96-well black wall microtiter plates coated with poly-D-lysine for assay the following day. […] Basal fluorescence was monitored in a fluorometric imaging plate reader (FLIPR™, Molecular Devices) with an excitation wavelength of 488 nm and an emission range of 500 to 560 nm. Laser excitation energy was adjusted so that basal fluorescence readings were approximately 10,000 relative fluorescent units. Cells were stimulated with agonists diluted in assay buffer (50 μl), and relative fluorescent units were measured at defined intervals (exposure=0.4 sec) over a 3 min period at room temperature. Maximum change in fluorescence was calculated for each well. […]

Sequence of h GLP-1 (P43220 24-463): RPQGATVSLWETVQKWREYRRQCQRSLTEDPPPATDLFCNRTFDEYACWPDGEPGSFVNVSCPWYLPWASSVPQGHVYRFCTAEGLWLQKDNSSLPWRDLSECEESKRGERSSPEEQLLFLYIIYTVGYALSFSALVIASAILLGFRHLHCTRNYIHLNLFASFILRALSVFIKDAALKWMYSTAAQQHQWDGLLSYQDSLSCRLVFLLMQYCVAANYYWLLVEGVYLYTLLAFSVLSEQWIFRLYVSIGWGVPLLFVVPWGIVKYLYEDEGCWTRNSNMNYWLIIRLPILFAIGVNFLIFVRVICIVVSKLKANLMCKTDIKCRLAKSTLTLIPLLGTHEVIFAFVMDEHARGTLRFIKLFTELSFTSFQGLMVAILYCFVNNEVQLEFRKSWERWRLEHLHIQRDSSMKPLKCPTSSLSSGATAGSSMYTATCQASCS
Sequence of h 5HT4 (Q13639 whole entry): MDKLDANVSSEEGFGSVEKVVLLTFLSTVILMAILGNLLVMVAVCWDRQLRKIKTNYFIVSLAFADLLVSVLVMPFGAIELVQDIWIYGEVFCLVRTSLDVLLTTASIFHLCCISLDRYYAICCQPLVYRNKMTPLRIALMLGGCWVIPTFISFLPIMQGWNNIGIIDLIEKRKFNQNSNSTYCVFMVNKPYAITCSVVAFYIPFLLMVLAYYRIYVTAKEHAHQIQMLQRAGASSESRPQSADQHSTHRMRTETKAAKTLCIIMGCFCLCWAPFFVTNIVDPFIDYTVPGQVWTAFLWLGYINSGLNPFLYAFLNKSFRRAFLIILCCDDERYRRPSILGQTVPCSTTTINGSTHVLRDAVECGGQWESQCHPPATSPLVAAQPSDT
Sequence of h D5 (P21918 whole entry): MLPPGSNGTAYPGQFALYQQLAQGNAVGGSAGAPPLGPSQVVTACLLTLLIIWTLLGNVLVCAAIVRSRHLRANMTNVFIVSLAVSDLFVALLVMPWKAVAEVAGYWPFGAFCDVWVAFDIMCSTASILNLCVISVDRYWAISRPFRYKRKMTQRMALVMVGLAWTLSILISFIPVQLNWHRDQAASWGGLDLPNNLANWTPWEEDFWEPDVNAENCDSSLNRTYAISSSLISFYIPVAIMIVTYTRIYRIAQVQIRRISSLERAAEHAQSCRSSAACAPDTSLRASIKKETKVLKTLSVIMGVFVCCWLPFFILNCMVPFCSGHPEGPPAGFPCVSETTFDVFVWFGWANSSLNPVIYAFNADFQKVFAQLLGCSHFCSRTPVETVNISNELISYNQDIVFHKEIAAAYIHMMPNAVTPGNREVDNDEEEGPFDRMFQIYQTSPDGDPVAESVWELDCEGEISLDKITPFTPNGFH
Sequence of h 5HT7 (P34969 whole entry): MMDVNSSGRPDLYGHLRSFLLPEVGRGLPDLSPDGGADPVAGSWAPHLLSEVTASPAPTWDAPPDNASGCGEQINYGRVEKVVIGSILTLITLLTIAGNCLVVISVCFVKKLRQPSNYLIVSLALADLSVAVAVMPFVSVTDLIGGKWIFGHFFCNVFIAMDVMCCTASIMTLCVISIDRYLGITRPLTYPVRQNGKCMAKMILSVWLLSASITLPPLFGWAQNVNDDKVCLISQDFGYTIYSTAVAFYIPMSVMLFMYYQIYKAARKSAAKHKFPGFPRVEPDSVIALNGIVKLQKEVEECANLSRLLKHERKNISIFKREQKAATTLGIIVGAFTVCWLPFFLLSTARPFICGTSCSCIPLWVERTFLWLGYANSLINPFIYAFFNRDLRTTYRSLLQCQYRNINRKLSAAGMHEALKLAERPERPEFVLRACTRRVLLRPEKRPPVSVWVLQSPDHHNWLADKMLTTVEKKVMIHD
Sequence of h 5HT6 (P50406 whole entry): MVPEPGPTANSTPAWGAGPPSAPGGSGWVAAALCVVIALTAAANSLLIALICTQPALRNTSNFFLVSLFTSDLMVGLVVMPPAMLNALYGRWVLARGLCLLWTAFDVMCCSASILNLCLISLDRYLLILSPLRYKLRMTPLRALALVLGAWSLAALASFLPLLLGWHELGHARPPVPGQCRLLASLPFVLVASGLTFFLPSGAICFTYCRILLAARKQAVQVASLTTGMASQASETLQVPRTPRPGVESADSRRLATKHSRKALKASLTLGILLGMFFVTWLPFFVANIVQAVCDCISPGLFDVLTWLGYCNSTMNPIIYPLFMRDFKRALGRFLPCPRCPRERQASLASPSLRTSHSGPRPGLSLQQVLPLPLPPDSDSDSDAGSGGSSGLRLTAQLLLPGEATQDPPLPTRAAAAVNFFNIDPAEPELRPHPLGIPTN
T1 sequence (P21728 whole entry): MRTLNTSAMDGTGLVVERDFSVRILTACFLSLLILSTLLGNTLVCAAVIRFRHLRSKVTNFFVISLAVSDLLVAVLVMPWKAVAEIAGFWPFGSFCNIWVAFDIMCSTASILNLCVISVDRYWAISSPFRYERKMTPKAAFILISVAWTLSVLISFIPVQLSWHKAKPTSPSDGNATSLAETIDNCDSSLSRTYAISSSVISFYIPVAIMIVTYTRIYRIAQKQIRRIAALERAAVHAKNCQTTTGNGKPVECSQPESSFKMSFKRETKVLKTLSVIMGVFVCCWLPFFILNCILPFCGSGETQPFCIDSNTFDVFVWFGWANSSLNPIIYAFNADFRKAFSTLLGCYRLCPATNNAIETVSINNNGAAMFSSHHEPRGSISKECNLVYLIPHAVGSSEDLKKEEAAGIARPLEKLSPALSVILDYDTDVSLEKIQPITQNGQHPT

B1: cGαq/s9: C. elegans Gαq backbone with 9 C-terminal amino acids of Gαs (SEQ ID NO: 3) (protein)
chain: MACCLSEEAREQKRINQEIEKQLQRDKRNARRELKLLLLGTGESGKSTFIKQMRIIHGQGYSEEDKRAHIRLVYQNVFMAIQSMIRAMDTLDIKFGNESEELQEKAAVVREVDFESVTSFEEPYVSYIKELWEDSGIQECYDRRREYQLTDSAKYYLSDLRRLAVPDYLPTEQDILRVRVPTTGIIEYPFDLEQIIFRMVDVGGQRSERRKWIHCFENVTSIMFLVALSEYDQVLVECDNENRMEESKALFRTIITYPWFTNSSVILFLNKKDLLEEKILYSHLADYFPEYDGPPRDPIAAREFILKMFVDLNPDADKIIYSHFTCATDTENIRFVFAAVKDTILQMHLRQYELL
modifications: C. elegans
MAXIMAL SIGNAL (FLUORESCENCE UNITS) (h D5): 1870 fluorescence units
MAXIMAL SIGNAL (FLUORESCENCE UNITS) (h GLP-1): 2461 fluorescence units
MAXIMAL SIGNAL (FLUORESCENCE UNITS) (h β2 adr): 3106 fluorescence units
MAXIMAL SIGNAL (FLUORESCENCE UNITS) (h 5HT7): 387 fluorescence units
MAXIMAL SIGNAL (FLUORESCENCE UNITS) (h 5HT4): 1701 fluorescence units
MAXIMAL SIGNAL (FLUORESCENCE UNITS) (h 5HT6): 1639 fluorescence units
MAXIMAL SIGNAL (FLUORESCENCE UNITS) (h D1): 8692 fluorescence units
Gαs-coupling receptors generating positive responses (>500 fluorescence units) / receptors tested [1]: 6/7
percent of Gαs-coupling receptors generating positive responses (>500 fluorescence units) [1]: 81%
